Reference: publication PMC8178886, “Recombinant laccase rPOXA 1B real-time, accelerated and molecular dynamics stability study” (BMC Biotechnology, 2021)

Substrate: CCn1c(=NN=c2sc3cc(S(=O)(=O)O)ccc3n2CC)sc2cc(S(=O)(=O)O)ccc21
Assay: cells, lysate or membranes
Format: biochemical, Pleurotus ostreatus
Conditions: unpurified concentrate stored 12 months at 240.98 K (-32.55 °C), activity unchanged, 0.1 M citrate pH 3.0, 25 °C, ABTS 0.1-3 mM (all above the KM), air O2

B1: rPOXA 1B (Pleurotus ostreatus) (protein)
chain: SIGPRGTLNIANKVIQPDGFYRSTVLAGGSYPGPLIKGKTGDRFQINVVNKLADTSMPVDTSIHWHGLFVKGHNWADGPAMVTQCPIVPGHSFLYDFEVPDQAGTFWYHSHLGTQYCDGLRGPLVVYSKNDPHKRLYDVDDESTVLTVGDWYHAPSLSLTGVPHPDSTLFNGLGRSLNGPASPLYVMNVVKGKRYRIRLINTSCDSNYQFSIDGHTFTVIEADGENTQPLQVDQVQIFAGQRYSLVLNANQAVGNYWIRANPNSGDPGFENQMNSAILRYKGARSIDPTTPEQNATNPLHEYNLRPLIKKPAPGKPFPGGADHNINLNFAFDPATALFTANNHTFVPPTVPVLLQILSGTRDAHDLAPAGSIYDIKLGDVVEITMPALVFAGPHPIHLHGHTFAVVRSAGSSTYNYENPVRRDVVSIGDDPTDNVTIRFVADNAGPWFLHCHIDWHLDLGFAVVFAEGVNQTAAANPVPEAWNNLCPIYNSSNPSKLLMGTNAIGRLPAPLKA
notes: recombinant, made in Pichia pastoris X33/pGAPZalphaA-LaccPost-Stop clone 1 (10 L bioreactor); unpurified enzyme concentrate without preservatives
  Km: 41.4 ± 4.6 µM
  Vmax: 10.2 µM/min
